Measured values from the supplement of paper PMC11246515.
± gives the standard deviation of the averaged measurements.

Assay: total protein half-life in vivo (active degradation + dilution); higher = more stable protein
[1] = E. coli NCM3722 delta-clpP delta-lon delta-hslV, growth: N-lim chemostat, doubling time 6 h
[2] = E. coli NCM3722 delta-clpP, growth: N-lim chemostat, doubling time 6 h
[3] = E. coli NCM3722 delta-hslV, growth: N-lim chemostat, doubling time 6 h
[4] = E. coli NCM3722 delta-lon, growth: N-lim chemostat, doubling time 6 h
[5] = E. coli NCM3722 delta-smpB, growth: N-lim chemostat, doubling time 6 h
[6] = wild type E. coli NCM3722, growth: C-lim chemostat, doubling time 6 h
[7] = wild type E. coli NCM3722, growth: C-lim chemostat, doubling time 12 h
[8] = wild type E. coli NCM3722, growth: N-lim chemostat, doubling time 6 h
[9] = wild type E. coli NCM3722, growth: N-lim chemostat, doubling time 12 h
[10] = wild type E. coli NCM3722, growth: P-lim chemostat, doubling time 6 h
[11] = wild type E. coli NCM3722, growth: P-lim chemostat, doubling time 12 h
[12] = wild type E. coli NCM3722, growth: C-lim chemostat, doubling time 3 h

Sequence	total protein half-life in vivo [1] [h]	total protein half-life in vivo [2] [h]	total protein half-life in vivo [3] [h]	total protein half-life in vivo [4] [h]	total protein half-life in vivo [5] [h]	total protein half-life in vivo [6] [h]	total protein half-life in vivo [7] [h]	total protein half-life in vivo [8] [h]	total protein half-life in vivo [9] [h]	total protein half-life in vivo [10] [h]	total protein half-life in vivo [11] [h]	total protein half-life in vivo [12] [h]
MRLFAQLSWYFRREWRRYLGAVALLVIIAMLQLVPPKVVGIVVDGVTEQHFTTGQILMWIATMVLIAVVVYLLRYVWRVLLFGASYQLAVELREDYYRQLSRQHPEFYLRHRTGDLMARATNDVDRVVFAAGEGVLTLVDSLVMGCAVLIMMSTQISWQLTLFSLLPMPVMAIMIKRNGDALHERFKLAQAAFSSLNDRTQESLTSIRMIKAFGLEDRQSALFAADAEDTGKKNMRVARIDARFDPTIYIAIGMANLLAIGGGSWMVVQGSLTLGQLTSFMMYLGLMIWPMLALAWMFNIVERGSAAYSRIRAMLAEAPVVNDGSEPVPEGRGELDVNIHQFTYPQTDHPALENVNFALKPGQMLGICGPTGSGKSTLLSLIQRHFDVSEGDIRFHDIPLTKLQLDSWRSRLAVVSQTPFLFSDTVANNIALGCPNATQQEIEHVARLASVHDDILRLPQGYDTEVGERGVMLSGGQKQRISIARALLVNAEILILDDALSAVDGRTEHQILHNLRQWGQGRTVIISAHRLSALTEASEIIVMQHGHIAQRGNHDVLAQQSGWYRDMYRYQQLEAALDDAPENREEAVDA	6.33 ± 0.2	6.624 ± 0.017	5.58 ± 1.5	4.42 ± 0.37	4.26 ± 0.096	4.99 ± 0.061	11.1 ± 1.6	4.77 ± 0.67	7.121 ± 0.033	6.08 ± 0.52	11.6 ± 3.3	
MMSQPAKVLLLYAHPESQDSVANRVLLKPATQLSNVTVHDLYAHYPDFFIDIPREQALLREHEVIVFQHPLYTYSCPALLKEWLDRVLSRGFASGPGGNQLAGKYWRSVITTGEPESAYRYDALNRYPMSDVLRPFELAAGMCRMHWLSPIIIYWARRQSAQELASHARAYGDWLANPLSPGGR [P0A756]	5.94 ± 0.44	5.15 ± 0.59	5.89 ± 0.62	5.99 ± 0.26	5.51 ± 0.33	5.7 ± 1.1	10.6 ± 2.5	5.63 ± 0.52	10.74 ± 0.04	5.239 ± 0.0081	10.6 ± 0.47	2.94 ± 0.079
MERVSITERPDWREKAHEYGFNFHTMYGEPYWCEDAYYKLTLAQVEKLEEVTAELHQMCLKVVEKVIASDELMTKFRIPKHTWSFVRQSWLTHQPSLYSRLDLAWDGTGEPKLLENNADTPTSLYEAAFFQWIWLEDQLNAGNLPEGSDQFNSLQEKLIDRFVELREQYGFQLLHLTCCRDTVEDRGTIQYLQDCATEAEIATEFLYIDDIGLGEKGQFTDLQDQVISNLFKLYPWEFMLREMFSTKLEDAGVRWLEPAWKSIISNKALLPLLWEMFPNHPNLLPAYFAEDDHPQMEKYVVKPIFSREGANVSIIENGKTIEAAEGPYGEEGMIVQQFHPLPKFGDSYMLIGSWLVNDQPAGIGIREDRALITQDMSRFYPHIFVE [P0ADT5]		4.7 ± 0.6	4.25 ± 0.46	4.93 ± 0.34	4.3 ± 0.17	5.78 ± 1	9.63 ± 0.61	4.46 ± 0.15	8.2 ± 1	5.65 ± 0.24	11.5 ± 0.2	3.13 ± 0.18
MDLNTLISQYGYAALVIGSLAEGETVTLLGGVAAHQGLLKFPLVVLSVALGGMIGDQVLYLCGRRFGGKLLRRFSKHQDKIERAQKLIQRHPYLFVIGTRFMYGFRVIGPTLIGASQLPPKIFLPLNILGAFAWALIFTTIGYAGGQVIAPWLHNLDQHLKHWVWLILVVVLVVGVRWWLKRRGKKKPDHQA	6.78					5.72			10.9	6.18	13.6	
MKCPVCHQGEMVSGIKDIPYTFRGRKTVLKGIHGLYCVHCEESIMNKEESDAFMAQVKAFRASVNAETVAPEFIVKVRKKLSLTQKEASEIFGGGVNAFSRYEKGNAQPHPSTIKLLRVLDKHPELLNEIR	4.78 ± 0.28	1.229 ± 0.0039	1.01	3.01 ± 0.085	0.847 ± 0.046	1.07 ± 0.12	1.23	0.993	1.08	1.13	1.6 ± 0.84	0.559 ± 0.062
MSLPSIPSFVLSGLLLICLPFSSFASATTSHISFSYAARQRMQNRARLLKQYQTHLKKQASYIVEGNAESKRALRQHNREQIKQHPEWFPAPLKASDRRWQALAENNHFLSSDHLHNITEVAIHRLEQQLGKPYVWGGTRPDKGFDCSGLVFYAYNKILEAKLPRTANEMYHYRRATIVANNDLRRGDLLFFHIHSREIADHMGVYLGDGQFIESPRTGETIRISRLAEPFWQDHFLGARRILTEETIL							3.06					
MTMTRLKISKTLLAVMLTSAVATGSAYAENNAQTTNESAGQKVDSSMNKVGNFMDDSAITAKVKAALVDHDNIKSTDISVKTDQKVVTLSGFVESQAQAEEAVKVAKGVEGVTSVSDKLHVRDAKEGSVKGYAGDTATTSEIKAKLLADDIVPSRHVKVETTDGVVQLSGTVDSQAQSDRAESIAKAVDGVKSVKNDLKTK [P0AFH8]	3.62 ± 0.17	4.7 ± 0.28	5.73 ± 0.24	5.7 ± 0.33	5.25 ± 0.3	5.39 ± 0.2	8.26 ± 2.2	5.5 ± 0.26	11.3 ± 0.17	4.9 ± 0.15	9.28 ± 0.88	2.96 ± 0.067
MQKVVLATGNVGKVRELASLLSDFGLDIVAQTDLGVDSAEETGLTFIENAILKARHAAKVTALPAIADDSGLAVDVLGGAPGIYSARYSGEDATDQKNLQKLLETMKDVPDDQRQARFHCVLVYLRHAEDPTPLVCHGSWPGVITREPAGTGGFGYDPIFFVPSEGKTAAELTREEKSAISHRGQALKLLLDALRNG	4.93 ± 0.34	4.228 ± 0.016	4.12 ± 0.13	4.93 ± 0.076	3.951 ± 0.0058	5.1 ± 0.19	8.51 ± 0.84	4 ± 0.17	6.87 ± 0.21	5.14 ± 0.35	10.7 ± 0.027	3.16 ± 0.17
MNPVPAQREYFLDSIRAWLMLLGIPFHISLIYSSHTWHVNSAESSLWLTLFNDFIHSFRMQVFFVISGYFSYMLFLRYPLKKWWKVRVERVGIPMLTAIPLLTLPQFIMLQYVKGKAESWPGLSLYDKYNTLAWELISHLWFLLVLVVMTTLCVWIFKRIRNNLENSDKTNKKFSMVKLSVIFLCLGIGYAVIRRTIFIVYPPILSNGMFNFIVMQTLFYLPFFILGALAFIFPHLKALFTTPSRGCTLAAALAFVAYLLNQRYGSGDAWMYETESVITMVLGLWMVNVVFSFGHRLLNFQSARVTYFVNASLFIYLVHHPLTLFFGAYITPHITSNWLGFLCGLIFVVGIAIILYEIHLRIPLLKFLFSGKPVVKRENDKAPAR	> 8	5.18			6.23				9.69	7.05	> 16	
MKTLNRRDFPGAQYPERIIQFGEGNFLRAFVDWQIDLLNEHTDLNSGVVVVRPIETSFPPSLSTQDGLYTTIIRGLNEKGEAVSDARLIRSVNREISVYSEYDEFLKLAHNPEMRFVFSNTTEAGISYHAGDKFDDAPAVSYPAKLTRLLFERFSHFNGALDKGWIIIPCELIDYNGDALRELVLRYAQEWALPEAFIQWLDQANSFCSTLVDRIVTGYPRDEVAKLEEELGYHDGFLDTAEHFYLFVIQGPKSLATELRLDKYPLNVLIVDDIKPYKERKVAILNGAHTALVPVAFQAGLDTVGEAMNDAEICAFVEKAIYEEIIPVLDLPRDELESFASAVTGRFRNPYIKHQLLSIALNGMTKFRTRILPQLLAGQKANGTLPARLTFALAALIAFYRGERNGETYPVQDDAHWLERYQQLWSQHRDRVIGTQELVAIVLAEKDHWEQDLTQVPGLVEQVANDLDAILEKGMREAVRPLC [P0A6L7]						4.58 ± 0.071	8.15 ± 1.3			5.26 ± 0.51		3.15 ± 0.18
MATTTAECLTQETMDYHALNAMLNLYDSAGRIQFDKDRQAVDAFIATHVRPNSVTFSSQQQRLNWLVNEGYYDESVLNRYSRDFVITLFTHAHTSGFRFQTFLGAWKFYTSYTLKTFDGKRYLEDFADRVTMVALTLAQGDETLALQLTDEMLSGRFQPATPTFLNCGKQQRGELVSCFLLRIEDNMESIGRAVNSALQLSKRGGGVAFLLSNLREAGAPIKRIENQSSGVIPVMKMLEDAFSYANQLGARQGAGAVYLHAHHPDILRFLDTKRENADEKIRIKTLSLGVVIPDITFHLAKENAQMALFSPYDVERVYGKPFADVAISQHYDELVADERIRKKYLNARDFFQRLAEIQFESGYPYIMYEDTVNRANPIAGRINMSNLCSEILQVNSASEYDENLDYTRTGHDISCNLGSLNIAHTMDSPDFARTVETAVRGLTAVSDMSHIRSVPSIEAGNAASHAIGLGQMNLHGYLAREGIAYGSPEALDFTNLYFYAITWHALRTSMLLARERGETFAGFKQSRYASGEYFSQYLQGNWQPKTAKVGELFTRSGITLPTREMWAQLRDDVMRYGIYNQNLQAVPPTGSISYINHATSSIHPIVAKVEIRKEGKTGRVYYPAPFMTNENLALYQDAYEIGAEKIIDTYAEATRHVDQGLSLTLFFPDTATTRDINKAQIYAWRKGIKTLYYIRLRQMALEGTEIEGCVSCAL	4.76 ± 0.29	4.61 ± 2.7				2.61 ± 0.17	2.88 ± 1.4					
